# Experimental data reported in patent US20110195900A1, “PEPTIDIC PTH RECEPTOR AGONISTS” (FERRING B.V., priority 2008, published 2011).
# Non-standard residues stand in square brackets, D forms with d. No end group written: not given here. 1Nal = N[C@@H](Cc1cccc2ccccc12)C(=O)O; Nle = CCCC[C@H](N)C(=O)O; Aib = CC(C)(N)C(=O)O; βAla = NCCC(=O)O
# B1: [Aib^1, Nle^8,18, β-Ala^17, 1-Nal^23] hPTH (1-34)-NH2 (peptide)
# peptide: [Aib]VSEIQL[Nle]HNLGKHLN[βAla][Nle]ERVE[1Nal]LRKKLQDVHNF-NH2
# modifications: N-terminus assumed
# SMILES: CCCC[C@H](NC(=O)CCNC(=O)[C@H](CC(N)=O)NC(=O)[C@H](CC(C)C)NC(=O)[C@H](Cc1c[nH]cn1)NC(=O)[C@H](CCCCN)NC(=O)CNC(=O)[C@H](CC(C)C)NC(=O)[C@H](CC(N)=O)NC(=O)[C@H](Cc1c[nH]cn1)NC(=O)[C@H](CCCC)NC(=O)[C@H](CC(C)C)NC(=O)[C@H](CCC(N)=O)NC(=O)[C@@H](NC(=O)[C@H](CCC(=O)O)NC(=O)[C@H](CO)NC(=O)[C@@H](NC(=O)C(C)(C)N)C(C)C)[C@@H](C)CC)C(=O)N[C@@H](CCC(=O)O)C(=O)N[C@@H](CCCNC(=N)N)C(=O)N[C@H](C(=O)N[C@@H](CCC(=O)O)C(=O)N[C@@H](Cc1cccc2ccccc12)C(=O)N[C@@H](CC(C)C)C(=O)N[C@@H](CCCNC(=N)N)C(=O)N[C@@H](CCCCN)C(=O)N[C@@H](CCCCN)C(=O)N[C@@H](CC(C)C)C(=O)N[C@@H](CCC(N)=O)C(=O)N[C@@H](CC(=O)O)C(=O)N[C@H](C(=O)N[C@@H](Cc1c[nH]cn1)C(=O)N[C@@H](CC(N)=O)C(=O)N[C@@H](Cc1ccccc1)C(N)=O)C(C)C)C(C)C
# Columns and labels:
# [1] = biological target: human parathyroid hormone receptor 1 (human, UniProt Q03431); assay: cell-based or functional assay
# [2] = biological target: human parathyroid hormone receptor 2 (human, UniProt P49190); assay: cell-based or functional assay
binder,measurement,setting,value
B1,"hPTHR-1 EC50 (nM), CRE-luciferase reporter gene assay",[1],0.22 nM
same,"hPTHR-2 EC50 (nM), luciferase reporter gene assay",[2],46 nM
